{"source": "paper PMC12469269", "about": "“Investigating SMR Peptide Interactions with Breast Cancer-Associated Proteins” (International Journal of Molecular Sciences, 2025)", "experiment_in_all_cases": "SPR", "details_in_all_cases": "both partners purified", "key": {"[1]": {"target": "T1, Recombinant Human GRP75/HSPA9B/Mortalin His Protein (human, UniProt P38646 47-679)", "T1 construct": "source: bought: Novus Biologicals, LLC/R&D Systems", "T1 sequence (P38646 47-679)": "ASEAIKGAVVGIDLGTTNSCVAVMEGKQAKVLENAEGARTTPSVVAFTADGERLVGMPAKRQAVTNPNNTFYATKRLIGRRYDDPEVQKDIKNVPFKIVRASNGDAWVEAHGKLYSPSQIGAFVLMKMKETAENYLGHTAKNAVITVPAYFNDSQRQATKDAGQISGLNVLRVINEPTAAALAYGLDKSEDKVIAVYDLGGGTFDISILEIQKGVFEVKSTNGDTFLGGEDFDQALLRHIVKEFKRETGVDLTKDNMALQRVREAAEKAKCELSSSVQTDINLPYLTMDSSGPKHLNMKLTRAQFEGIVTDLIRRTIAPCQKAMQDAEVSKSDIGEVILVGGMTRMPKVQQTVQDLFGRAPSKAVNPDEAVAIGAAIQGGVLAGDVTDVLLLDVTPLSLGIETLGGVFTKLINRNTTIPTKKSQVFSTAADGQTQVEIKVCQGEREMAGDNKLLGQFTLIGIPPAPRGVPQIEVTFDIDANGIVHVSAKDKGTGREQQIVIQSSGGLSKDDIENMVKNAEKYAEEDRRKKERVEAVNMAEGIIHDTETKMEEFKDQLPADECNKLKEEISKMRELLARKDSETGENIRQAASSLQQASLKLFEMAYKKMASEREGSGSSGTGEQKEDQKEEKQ"}, "[2]": {"target": "T2, Recombinant Human Vimentin Protein, CF (human, UniProt P08670 1-466)", "T2 construct": "source: bought: Novus Biologicals, LLC/R&D Systems", "T2 sequence (P08670 whole entry)": "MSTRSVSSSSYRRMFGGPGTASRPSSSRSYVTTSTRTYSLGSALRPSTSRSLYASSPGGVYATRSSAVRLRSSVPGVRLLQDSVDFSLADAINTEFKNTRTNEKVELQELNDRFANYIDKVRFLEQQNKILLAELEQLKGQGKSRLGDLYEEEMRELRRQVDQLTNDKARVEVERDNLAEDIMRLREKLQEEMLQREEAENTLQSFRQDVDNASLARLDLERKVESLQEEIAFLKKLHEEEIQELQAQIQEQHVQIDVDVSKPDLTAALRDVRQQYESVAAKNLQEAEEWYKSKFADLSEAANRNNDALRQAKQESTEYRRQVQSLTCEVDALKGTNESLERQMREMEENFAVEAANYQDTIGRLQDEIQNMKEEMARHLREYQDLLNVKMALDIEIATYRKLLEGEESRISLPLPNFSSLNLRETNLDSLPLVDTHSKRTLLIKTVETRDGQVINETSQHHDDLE"}, "[3]": {"target": "T1, Recombinant Human GRP75/HSPA9B/Mortalin …", "remark": "listed apart in the source"}, "[4]": {"target": "T2, Recombinant Human Vimentin Protein, CF", "remark": "listed apart in the source"}}}
{"binder": "HIV-1 Nef protein (natural protein, also called full Nef protein) MGGKWSKSSVVGWPTVRERMRRAEPAADGVGAASRDLEKHGAITSSNTAATNAACAWLEAQEEEEVGFPVTPQVPLRPMTYKAAVDLSHFLKEKGGLEGLIHSQRRQDILDLWIYHTQGYFPDWQNYTPGPGVRYPLTFGWCYKLVPVEPDKVEEANKGENTSLLHPVSLHGMDDPEREVLEWRFDSRLAFHHVARELHPEYFKNC", "values": [{"measurement": "Kd", "setting": "[1]", "result": 2.1, "unit": "nM"}, {"measurement": "Kd", "setting": "[2]", "result": 0.2, "unit": "nM"}, {"measurement": "Kd", "setting": "[3]", "result": 3.16, "unit": "nM"}, {"measurement": "Kd", "setting": "[4]", "result": 0.75, "unit": "nM"}]}
